Source: patent publication US20230391854A1 (Innovent, published 2023)

Columns and labels:
[1] = target: SARS-CoV-2 euvirus S protein (SARS-CoV-2, UniProt P0DTC2 14-1273); assay: cell-based or functional assay
[2] = target: Biotin-ncov RBD (KACTUS, COV-VM4BDB) (SARS-CoV-2, UniProt P0DTC2 319-537); assay: ELISA blocking assay: antibody titrated from 900 nM, blocks biotin-RBD (200 ng/mL) binding to coated ACE2-Fc

Binder | EC50, neutralization of SARS-CoV-2 euvirus infection of VERO-E6 cells (CPE, day 4) [1] | IC50 [2]
P10-20 (antibody, V domains shown, also called candidate antibody molecule P10-20) VH: QVQLVESGGGLVKPGGSLRLSCAASGFTFSDYYMSWIRQAPGKGLEWVSYISISSTYTNYADSVKGRFTISRDNAKNSLYLQMNSLRAEDTAVYYCVIAAAGKGHYYYGMDVWGQGTTVTVSS VL: not shown | ~0.0752 µg/mL | 0.957 nM
P14-44 (antibody, V domains shown, also called candidate antibody molecule P14-44) VH: QVQLVQSGAEVKKPGASVKVSCKASGYIFTSYSMHWVRQAPGQGLEWMGTIKPSDDSTNYAQKFQGRVSMTRDTSTSTVYMELSSLRYEDTAVYYCAREARGYYDRSGYYHPGYFDYWGQGTLVTVSS VL: QSVLTQPASVSGSPGQSITISCTGTSSDVGGYNFVSWYQQHPGKAPKLMIYEVSDRPSGVSSRFSGSKSGNTASLTISGLQAEDEADYYCFSYTTSTTWVFGGGTKLTVL | 0.708 µg/mL | 0.863 nM
P23-29 (antibody, V domains shown, also called candidate antibody molecule P23-29) VH: QVQLQESGPGLVKPSETLSLTCTVSGDSISSSTYYWGWIRQPPGKGLEWIGSMYYGRSTYYNPSLKSRVTVSVDTSKNQLSLKVSSVTAADTAVYYCARHLGGVDYWGQGTLVTVSS VL: DIQMTQSPSSLSASVGDRVTITCRASQGISNSLAWYQQEPGKAPKLLLYAASTLESGVPSRFSGSGSGADSTLTISSLQPEDFATYYCQQYYSASALTFGGGTKVEIK | 0.0488 µg/mL | 1.2 nM
P3-11 (antibody, V domains shown, also called candidate antibody molecule P3-11) VH: QVQLVESGGGLVQPGGSLRLSCAASGITVSSNYMSWVRQAPGKGLEWVSVIYSGGSTFYADPVKGRLTISRDNSKNTLYLQMNSVRVEDTAVYYCARGEGWELPFDYWGQGALVTVSS VL: QSALTQPPSASGSPGQSVTISCTGTSSDVGGNKYVSWYQQHPGKAPKLIIYEVSKRPSGVPDRFSGSKSGNTASLTVSGLQAEDEADYHCSSYAGSNNLVFGGGTKLTVL | 0.195 µg/mL | 1.1 nM
P5-22 (antibody, V domains shown, also called candidate antibody molecule P5-22) VH: EVQLVESGGGLVKPGGSLRLSCAASGFTFRDYDIIWIRQAPGKGLEWVSYISRSGSTIYYSDSVRGRFTISRDNAKNSVYLQMNSLRAEDTAVYYCARDFGFEGPRMDVWGQGTTVTVSS VL: DIQMTQSPSSLSASVGDRVTITCQASQDIKNYLNWYQQKPGKAPKLLIYDASNLETGVPSRFSGSGSGTDFTFTISSLQPEDIATYYCQQFDNLPITFGQGTRLEIK | 0.00657 µg/mL | 1.08 nM
P14-37 (antibody, V domains shown, also called candidate antibody molecule P14-37) VH: EVQLVESGGGLVKPGGSLRLSCAASGFTFSNAWMSWVRQAPGKGLEWVGRIKRNSDGGTTDHAAPVTGRFIISRDDSKNTLYLQMNSLRTEDTAVYYCTTDLDTVVRRVVITDHDAFDIWGQGTMVTVSS VL: DIQMTQSPSSLSASVGDRVTITCRASQSISSFLNWYQQKAGKAPKLLIYAASSLQSGVPSRFSGSGSGTDFSLTISNLQPEDFATYYCQQSYSTPSITFGQGTRLEIK | – | 1.14 nM
P15-16 (antibody, V domains shown, also called candidate antibody molecule P15-16) VH: QVQLVESGGGLVQPGRSLTLSCAASGFTFDDYAMHWVRQAPGKGLEWVSGISWNSGTIDYADSVKGRFTISRDNAKNSLYLQMNSLRAEDTALYYCATLPRERAYSGYDRIFYTIDVWGQGTTVTVSS VL: not shown | – | 1.39 nM
